Here are results for 1 molecule from patent publication US20250195607A1 (BIOLINERX, published 2025).

Bridges are numbered along the chain shown (N, C = ends). [ ]: non-standard residue; d: D form. The star is where a group is joined. 2Nal = N[C@@H](Cc1ccc2ccccc2c1)C(=O)O; Benzoyl(4-F) = O=C(c1ccc(F)cc1)*; Cit = NC(=O)NCCC[C@H](N)C(=O)O

The test concerns the target CXCR4 chemokine receptor (mouse, UniProt P70658 1-359). The test is described as follows: cell-based or functional assay.

Chain of CXCR4 chemokine receptor (P70658 whole entry): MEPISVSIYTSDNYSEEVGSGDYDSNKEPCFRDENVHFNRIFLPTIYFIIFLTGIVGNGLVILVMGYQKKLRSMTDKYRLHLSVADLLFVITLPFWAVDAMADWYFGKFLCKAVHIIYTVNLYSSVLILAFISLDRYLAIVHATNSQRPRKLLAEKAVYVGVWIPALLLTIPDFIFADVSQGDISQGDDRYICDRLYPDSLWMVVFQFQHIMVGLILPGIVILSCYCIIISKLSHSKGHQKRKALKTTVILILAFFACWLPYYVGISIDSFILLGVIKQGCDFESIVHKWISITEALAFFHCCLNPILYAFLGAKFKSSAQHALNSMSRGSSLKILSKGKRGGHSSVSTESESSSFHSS

In the case of {Benzoyl(4-F)}-RR[2Nal]CY[Cit]K[dK]PYR[Cit]CR-NH2 (disulfide 4-13 (inferred)), the “Fold increase in neutrophil number in peripheral blood (mice, 5 mg/kg s.c., 2 hours after injection, flow cytometry); BL-8040 composition of Example 1” value was determined as 9.9 fold and the “Fold increase in neutrophil number in peripheral blood (mice, 5 mg/kg s.c., 2 hours after injection, flow cytometry); BL-8040 composition of Reference Example 1” value turned out to be 5.6 fold.
